Source: doi:10.1101/2020.08.11.243964

Biological target: Human connexin 26 protein (hCx26) (human) (UniProt P29033)
Experiment: cryo-EM structure

- stoichiometry N: 12
Substance: Human connexin 26 protein (hCx26) (from UniProt P29033) (natural protein)
